Consider 5 molecules from patent publication US9297028B2, “Fermentive production of four carbon alcohols” (Butamax Advanced Biofuels LLC, priority 2005, dated 2016).

Holding throughout (assay type): biochemical
Data set [1] in a line: Trans-2-enoyl-CoA reductase (butyryl-CoA dehydrogenase) activity assayed as described by Hoffmeister et al. On the procedure: Trans-2-enoyl-CoA reductase activity was assayed as described by Hoffmeister et al. (J. Biol. Chem. 280, 4329-4338 (2005)). In one typical assay, the specific activity of the TER CAC0462 protein in the induced culture was determined to be 0.694 μmol mg^−1 min^−1 compared to 0.0128 μmol mg^−1 min^−1 in the uninduced culture.
Trans-2-enoyl-CoA reductase activity was assayed as described by Hoffmeister et al., J. Biol. Chem. 280:4329 (2005). In a typical assay, the specific activity of the EgTER(opt) protein in the induced BL21 (DE3)/pET23+::EgTER(opt) culture was determined to be 1.9 μmol mg^−1 min^−1 compared to 0.547 μmol mg^−1 min^−1 in the uninduced culture.
(§1) For enzyme activity analysis, a single colony of each strain was streaked onto a fresh plate containing SD minimal drop out medium and incubated at 30° C. for 2 days. The cells on this plate were used to inoculate 20 mL of SD drop out medium and in a 125 mL shake flask and grown overnight at 30° C., with shaking at 250 rpm. The optical density (OD600) of the overnight culture was measured, and the culture was diluted to an OD600=0.1 in 250 mL of the same medium in a 1.0 L shake flask, and grown at 30° C. with shaking at 250 rpm to an OD600 of between 0.8 to 1.0. The cells were then harvested by centrifugation at 2000×g for 10 min, and resuspended in 20 mL of 50 mM Tris-HCl buffer, pH 8.5. Enzyme assays were performed as described above.

Data set [2] can be described thus: Acetoacetyl-CoA thiolase activity in cell free extracts (decrease in absorbance at 303 nm). To be noted: yeast strain BY4741 (pNY6), ERG10 gene, in words. On the procedure: Acetoacetyl-CoA thiolase activity in the cell free extracts was measured as degradation of a Mg^2+-acetoacetyl-CoA complex by monitoring the decrease in absorbance at 303 nm. Standard assay conditions were 100 mM Tris-HCl pH 8.0, 1 mM DTT (dithiothreitol) and 10 mM MgCl2. The cocktail was equilibrated for 5 min at 37° C.; then the cell-free extract was added. The reaction was initiated with the addition of 0.05 mM acetoacetyl-CoA plus 0.2 mM CoA. Protein concentration was measured by either the Bradford method or by the Bicinchoninic Kit (Sigma, catalog no. BCA-1). Bovine serum albumin (Bio-Rad, Hercules, Calif.) was used as the standard in both cases. In one typical assay, the specific activity of the ThlA protein in the induced culture was determined to be 16.0 μmol mg^−1 min^−1 compared to 0.27 μmol mg^−1 min^−1 in the uninduced culture.
For enzyme activity analysis, a single colony of each strain was streaked onto a fresh plate containing SD minimal drop out medium and incubated at 30° C. for 2 days. […] The optical density (OD600) of the overnight culture was measured, and the culture was diluted to an OD600=0.1 in 250 mL of the same medium in a 1.0 L shake flask, and grown at 30° C. with shaking at 250 rpm to an OD600 of between 0.8 to 1.0. […]

Data set [3] can be described thus: Acylating aldehyde dehydrogenase activity (formation of NADH, absorbance at 340 nm). To be noted: yeast BY4741 transformants containing pNY8. On the procedure:
Acylating aldehyde dehydrogenase activity was determined by monitoring the formation of NADH, as measured by the increase in absorbance at 340 nm, as described by Husemann et al. (Appl. Microbiol. Biotechnol. 31:435-444 (1989)). In one typical assay, the specific activity of the Aid protein in the induced culture was determined to be 0.106 μmol mg^−1 min^−1 compared to 0.01 μmol mg^−1 min^−1 in the uninduced culture
as §1

Data set [4] in a line: Crotonase activity assayed as described by Stern. As to the method:
Crotonase activity was assayed as described by Stern (Methods Enzymol. 1, 559-566, (1954)). In one typical assay, the specific activity of the crotonase protein in the induced culture was determined to be 444 μmol mg^−1 min^−1 compared to 47 μmol mg^−1 min^−1 in the uninduced culture.
as §1

B1: EgTER(opt): butyryl-CoA dehydrogenase (TER) from Euglena gracilis, codon optimized gene lacking the normal mitochondrial presequence (protein, UniProt Q5EU90 69-539, looked up)
Trans-2-enoyl-CoA reductase: VPQMAEGFSGEATSAWAAAGPQWAAPLVAAASSALALWWWAARRSVRRPLAALAELPTAVTHLAPPMAMFTTTAKVIQPKIRGFICTTTHPIGCEKRVQEEIAYARAHPPTSPGPKRVLVIGCSTGYGLSTRITAAFGYQAATLGVFLAGPPTKGRPAAAGWYNTVAFEKAALEAGLYARSLNGDAFDSTTKARTVEAIKRDLGTVDLVVYSIAAPKRTDPATGVLHKACLKPIGATYTNRTVNTDKAEVTDVSIEPASPEEIADTVKVMGGEDWELWIQALSEAGVLAEGAKTVAYSYIGPEMTWPVYWSGTIGEAKKDVEKAAKRITQQYGCPAYPVVAKALVTQASSAIPVVPLYICLLYRVMKEKGTHEGCIEQMVRLLTTKLYPENGAPIVDEAGRVRVDDWEMAEDVQQAVKDLWSQVSTANLKDISDFAGYQTEFLRLFGFGIDGVDYDQPVDVEADLPSAAQQ
In the case of B1, the “specific activity (trans-2-enoyl-CoA reductase)” value in data set [1] (induced BL21 (DE3)/pET23+::EgTER(opt) culture) turned out to be 1.9 µmol/mg/min. Besides, in data set [1] (pTrc99a-EgTER(opt) compared with CaTER constructs, in words), the butyryl-CoA dehydrogenase activity entry is “Higher”.

B2: ERG10: product of the Saccharomyces cerevisiae ERG10 gene, a functional ortholog of the thlA gene (protein, UniProt P41338 2-398, looked up)
Acetyl-CoA acetyltransferase: SQNVYIVSTARTPIGSFQGSLSSKTAVELGAVALKGALAKVPELDASKDFDEIIFGNVLSANLGQAPARQVALAAGLSNHIVASTVNKVCASAMKAIILGAQSIKCGNADVVVAGGCESMTNAPYYMPAARAGAKFGQTVLVDGVERDGLNDAYDGLAMGVHAEKCARDWDITREQQDNFAIESYQKSQKSQKEGKFDNEIVPVTIKGFRGKPDTQVTKDEEPARLHVEKLRSARTVFQKENGTVTAANASPINDGAAAVILVSEKVLKEKNLKPLAIIKGWGEAAHQPADFTWAPSLAVPKALKHAGIEDINSVDYFEFNEAFSVVGLVNTKILKLDPSKVNVYGGAVALGHPLGCSGARVVVTLLSILQQEGGKIGVAAICNGGGGASSIVIEKI
In the case of B2, in data set [2], the thiolase activity entry is “no thiolase activity”.

B3: Ald: butyraldehyde dehydrogenase encoded by ald from C. beijerinckii ATCC 35702, SEQ ID NO:12; in yeast from codon optimized aldy, SEQ ID NO:189 (protein, listed as Clostridium beijerinckii)
chain: MNKDTLIPTTKDLKVKTNGENINLKNYKDNSSCFGVFENVENAISSAVHAQKILSLHYTKEQREKIITEIRKAALQNKEVLATMILEETHMGRYEDKILKHELVAKYTPGTEDLTTTAWSGDNGLTVVEMSPYGVIGAITPSTNPTETVICNSIGMIAAGNAVVFNGHPCAKKCVAFAVEMINKAIISCGGPENLVTTIKNPTMESLDAIIKHPSIKLLCGTGGPGMVKTLLNSGKKAIGAGAGNPPVIVDDTADIEKAGRSIIEGCSFDNNLPCIAEKEVFVFENVADDLISNMLKNNAVIINEDQVSKLIDLVLQKNNETQEYFINKKWVGKDAKLFLDEIDVESPSNVKCIICEVNANHPFVMTELMMPILPIVRVKDIDEAIKYAKIAEQNRKHSAYIYSKNIDNLNRFEREIDTTIFVKNAKSFAGVGYEAEGFTTFTIAGSTGEGITSARNFTRQRRCVLAG
B3: in data set [3], the “Ald specific activity towards butyryl-CoA” value is “approximately 0.07 U/mg”.

B4: crotonase: crotonase encoded by crt from C. acetobutylicum ATCC 824, SEQ ID NO:8 (protein, listed as Clostridium acetobutylicum)
chain: MELNNVILEKEGKVAVVTINRPKALNALNSDTLKEMDYVIGEIENDSEVLAVILTGAGEKSFVAGADISEMKEMNTIEGRKFGILGNKVFRRLELLEKPVIAAVNGFALGGGCEIAMSCDIRIASSNARFGQPEVGLGITPGFGGTQRLSRLVGMGMAKQLIFTAQNIKADEALRIGLVNKVVEPSELMNTAKEIANKIVSNAPVAVKLSKQAINRGMQCDIDTALAFESEAFGECFSTEDQKDAMTAFIEKRKIEGFKNR
As for B4, the Crt activity in data set [4] (yeast strain BY4741 (pNY11: pRS426-GPM1-crt-GPM1t)) came to 85 U/mg. Further, the Crt enzyme activity in data set [4] (yeast strain DPD5200 (BY4743/pNY103), standard conditions) was 23.0 U/mg.

B5: Ter: butyl-CoA dehydrogenase (ter) encoded by the codon optimized tery gene, SEQ ID NO:187 (protein)
chain: MLVKAKFVKGFIRDVHPYGCRREVLNQIDYCKKAIGFRGPKKVLIVGASSGFGLATRISVAFGGPEAHTIGVSYETGATDRRIGTAGWYNNIFFKEFAKKKGLVAKNFIEDAFSNETKDKVIKYIKDEFGKIDLFVYSLAAPRRKDYKTGNVYTSRIKTILGDFEGPTIDVERDEITLKKVSSASIEEIEETRKVMGGEDWQEWCEELLYEDCFSDKATTIAYSYIGSPRTYKIYREGTIGIAKKDLEDKAKLINEKLNRVIGGRAFVSVNKALVTKASAYIPTFPLYAAILYKVMKEKNIHENCIMQIERMFSEKIYSNEKIQFDDKGRLRMDDLELRKDVQDEVDRIWSNITPENFKELSDYKGYKKEFMNLNGFDLDGVDYSKDLDIELLRKLEP
modifications: Modified Ter protein
As to B5, the Ter activity in data set [1] (yeast BY4741 transformant of pNY9) was 0.26 U/mg; in data set [1] (yeast BY4741 transformed with pNY13, SD-His medium) it was 0.19 U/mg.
